Reference: paper PMC9121386 (Journal of the American Chemical Society, 2022)

Tests used:
Assay in all cases: cross-linking
[1] = target: eS25 (40S ribosomal subunit protein) (human (endogenous in H1299), UniProt P62851 1-125)
[2] = target: uL2 (60S ribosomal subunit protein) (human (endogenous in H1299), UniProt P62917 1-257)
[3] = target: uL4 (60S ribosomal subunit protein) (human (endogenous in H1299), UniProt P36578 1-427)
[4] = target: uL16 (60S ribosomal subunit protein) (human (endogenous in H1299), UniProt P27635 1-214)

Measured: binding result

B1: fragile histidine triad (Fhit), wild type (enzyme)
chain: not shown
binds: [1] | [2] | [3] | [4]
